According to US20240301064A1 (published 2024):
Where a chain is given by its changes, count along the chain named.

B1: PMAB233 (antibody, human IgG1, kappa, V domains shown)
VH: QVQLVQSGAEVKKPGASVKVSCKASGYTFTTYYMHWVRQAPGQGLEWMGIIQPSGGSTSYAQKFQGRVTMTRDTSTSTVYMELSSLRSEDTAVYYCASGWVYWGQGTLVTVSS
VL: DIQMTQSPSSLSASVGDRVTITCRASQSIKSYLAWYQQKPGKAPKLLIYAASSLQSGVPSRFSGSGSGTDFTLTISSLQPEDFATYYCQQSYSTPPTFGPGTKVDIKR
B2: PMAB241 (antibody, human IgG1, kappa, V domains shown)
VH: B1 VH with T28S, T31S
VL: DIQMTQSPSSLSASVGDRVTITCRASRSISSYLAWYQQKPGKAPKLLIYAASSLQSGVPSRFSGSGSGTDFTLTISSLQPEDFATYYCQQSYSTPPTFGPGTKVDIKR
B3: PMAB240 (antibody, human IgG1, kappa, V domains shown)
VH: B1 VH with T28S, T31S
VL: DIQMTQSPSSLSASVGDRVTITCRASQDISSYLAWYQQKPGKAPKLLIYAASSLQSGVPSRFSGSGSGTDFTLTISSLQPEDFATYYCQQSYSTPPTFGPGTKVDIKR
B4: PMAB237 (antibody, human IgG1, kappa, V domains shown)
VH: B1 VH
VL: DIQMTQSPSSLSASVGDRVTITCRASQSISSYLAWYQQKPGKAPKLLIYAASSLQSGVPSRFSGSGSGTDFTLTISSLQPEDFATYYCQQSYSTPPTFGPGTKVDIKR
B5: PMAB234 (antibody, human IgG1, kappa, V domains shown)
VH: B1 VH
VL: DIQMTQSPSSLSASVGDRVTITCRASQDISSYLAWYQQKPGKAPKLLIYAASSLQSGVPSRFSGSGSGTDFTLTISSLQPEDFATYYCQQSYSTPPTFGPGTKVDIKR
B6: PMAB238 (antibody, human IgG1, kappa, V domains shown)
VH: B1 VH with T28S, T31S
VL: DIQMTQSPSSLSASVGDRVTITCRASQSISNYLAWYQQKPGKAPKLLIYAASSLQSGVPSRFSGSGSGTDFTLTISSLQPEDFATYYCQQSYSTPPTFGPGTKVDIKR
B7: PMAB239 (antibody, human IgG1, kappa, V domains shown)
VH: B1 VH with T28S, T31S
VL: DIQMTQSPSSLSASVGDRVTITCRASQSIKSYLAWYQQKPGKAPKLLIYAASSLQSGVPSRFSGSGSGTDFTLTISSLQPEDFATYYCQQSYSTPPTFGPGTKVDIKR
B8: PMAB242 (antibody, human IgG1, kappa, V domains shown)
VH: B1 VH with T28S, T31S
VL: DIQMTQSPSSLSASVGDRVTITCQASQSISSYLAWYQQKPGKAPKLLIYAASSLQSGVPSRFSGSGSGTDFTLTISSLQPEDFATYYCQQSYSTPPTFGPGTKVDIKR
B9: PMAB244 (antibody, human IgG1, kappa, V domains shown)
VH: B1 VH with T28S
VL: DIQMTQSPSSLSASVGDRVTITCQASRDIKNYLAWYQQKPGKAPKLLIYAASSLQSGVPSRFSGSGSGTDFTLTISSLQPEDFATYYCQQSYSTPPTFGPGTKVDIKR
B10: PMAB235 (antibody, human IgG1, kappa, V domains shown)
VH: B1 VH
VL: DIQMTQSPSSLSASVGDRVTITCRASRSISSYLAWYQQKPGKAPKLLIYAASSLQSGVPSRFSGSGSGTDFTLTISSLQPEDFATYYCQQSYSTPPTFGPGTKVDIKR
B11: PMAB243 (antibody, human IgG1, kappa, V domains shown)
VH: B1 VH with T28S, T31S
VL: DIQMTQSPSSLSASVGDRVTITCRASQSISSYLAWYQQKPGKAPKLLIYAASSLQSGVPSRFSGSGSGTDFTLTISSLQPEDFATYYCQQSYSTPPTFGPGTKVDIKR
B12: PMAB137 (bispecific antibody, human IgG1, kappa)
heavy: EVQLLESGGGLVQPGGSLRLSCAASGFTFSNSAMSWVRQAPGKGLEWVSGITISGGSTYYADSVKGRFTISRDNSKNTLYLQMNSLRAEDTAVYYCARGRGGSGWLDYWGQGTLVTVSSASTKGPSVFPLAPSSKSTSGGTAALGCLVKDYFPEPVTVSWNSGALTSGVHTFPAVLQSSGLYSLSSVVTVPSSSLGTQTYICNVNHKPSNTKVDKKVEPKSCDKTHTCPPCPAPEAAGAPSVFLFPPKPKDTLMISRTPEVTCVVVDVSHEDPEVKFNWYVDGVEVHNAKTKPREEQYNSTYRVVSVLTVLHQDWLNGKEYKCKVSNKALPAPIEKTISKAKGQPREPQVYTLPPSREEMTKNQVSLTCLVKGFYPSDIAVEWESNGQPENNYKTTPPVLDSDGSFFLYSKLTVDKSRWQQGNVFSCSVMHEALHNHYTQKSLSLSPGGGGGSGGGGSGGGGSEVQLLESGGGLVQPGGSLRLSCAASGFTFSDFWMHWVRQAPGKGLEWISYISGDSGYTNYADSVKGRFTISRDNSKNTLYLQMNSLRAEDTAVYYCARDRPYYYYMDVWGKGTTVTVSSGGGGSGGGGSGGGGSGGGGSDIQMTQSPSSLSASVGDRVTITCRASQSVSRSLAWYQQKPGKAPKLLIYAASSLQSGVPSRFSGSGSGTDFTLTISSLQPEDFATYYCQQYKSYPVTFGQGTKVEIK
light: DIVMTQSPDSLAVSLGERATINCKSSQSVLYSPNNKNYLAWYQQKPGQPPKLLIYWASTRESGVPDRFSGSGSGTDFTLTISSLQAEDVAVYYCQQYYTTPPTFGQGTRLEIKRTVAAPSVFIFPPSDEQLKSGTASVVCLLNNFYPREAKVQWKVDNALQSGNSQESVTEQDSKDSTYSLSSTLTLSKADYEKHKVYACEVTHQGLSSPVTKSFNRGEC
B13: PMAB179 (bispecific antibody, human IgG1, kappa)
heavy: B12 heavy with N31S, S32Y, A33D, G50A, T52S
light: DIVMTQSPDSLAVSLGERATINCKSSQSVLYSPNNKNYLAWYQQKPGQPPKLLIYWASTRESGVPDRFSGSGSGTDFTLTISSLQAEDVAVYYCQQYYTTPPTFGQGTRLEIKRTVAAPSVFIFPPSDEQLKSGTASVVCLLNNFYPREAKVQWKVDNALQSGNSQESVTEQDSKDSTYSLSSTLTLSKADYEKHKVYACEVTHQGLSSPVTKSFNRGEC
B14: PMAB145 (bispecific antibody, human IgG1, kappa)
heavy: B12 heavy with A33D
light: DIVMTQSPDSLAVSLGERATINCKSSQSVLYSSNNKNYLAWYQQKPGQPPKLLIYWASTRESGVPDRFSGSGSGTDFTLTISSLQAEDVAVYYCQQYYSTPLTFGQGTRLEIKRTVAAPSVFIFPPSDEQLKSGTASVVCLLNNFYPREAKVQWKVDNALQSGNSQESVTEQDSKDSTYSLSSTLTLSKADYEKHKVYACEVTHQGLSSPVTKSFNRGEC
B15: PMAB182 (bispecific antibody, human IgG1, kappa)
heavy: B12 heavy with N31S, S32Y, T52S, I53G
light: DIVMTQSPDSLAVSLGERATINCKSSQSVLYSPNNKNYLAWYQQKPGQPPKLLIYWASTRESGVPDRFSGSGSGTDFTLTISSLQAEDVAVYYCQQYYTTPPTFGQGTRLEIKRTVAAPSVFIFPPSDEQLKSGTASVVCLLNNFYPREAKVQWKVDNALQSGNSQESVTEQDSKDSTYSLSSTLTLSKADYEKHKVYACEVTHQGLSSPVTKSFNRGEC
B16: PMAB184 (bispecific antibody, human IgG1, kappa)
heavy: B12 heavy with N31S, S32Y, A33D, G50A, T52S, I53G
light: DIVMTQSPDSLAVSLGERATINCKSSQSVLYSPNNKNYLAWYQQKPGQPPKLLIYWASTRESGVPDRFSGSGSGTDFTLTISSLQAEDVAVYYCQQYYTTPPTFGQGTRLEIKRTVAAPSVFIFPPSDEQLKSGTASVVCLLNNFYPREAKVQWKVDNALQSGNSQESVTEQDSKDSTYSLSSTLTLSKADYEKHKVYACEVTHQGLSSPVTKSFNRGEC
B17: PMAB144 (bispecific antibody, human IgG1, kappa)
heavy: B12 heavy with A33D
light: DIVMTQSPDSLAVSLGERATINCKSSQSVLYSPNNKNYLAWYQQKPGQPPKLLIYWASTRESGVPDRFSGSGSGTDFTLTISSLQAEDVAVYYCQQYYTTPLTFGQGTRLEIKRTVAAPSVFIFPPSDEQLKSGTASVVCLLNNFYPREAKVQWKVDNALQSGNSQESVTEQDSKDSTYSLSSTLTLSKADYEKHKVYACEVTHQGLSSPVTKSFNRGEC
B18: PMAB211 (bispecific antibody, human IgG1, kappa)
heavy: QVQLVQSGAEVKKPGASVKVSCKASGYTFSDHYMHWVRQAPGQGLEWMGTIAPSGGRTSYAQKFQGRVTMTRDTSTSTVYMELSSLRSEDTAVYYCAADNGHASGWLYYYGMDVWGQGTTVTVSSASTKGPSVFPLAPSSKSTSGGTAALGCLVKDYFPEPVTVSWNSGALTSGVHTFPAVLQSSGLYSLSSVVTVPSSSLGTQTYICNVNHKPSNTKVDKKVEPKSCDKTHTCPPCPAPEAAGAPSVFLFPPKPKDTLMISRTPEVTCVVVDVSHEDPEVKFNWYVDGVEVHNAKTKPREEQYNSTYRVVSVLTVLHQDWLNGKEYKCKVSNKALPAPIEKTISKAKGQPREPQVYTLPPSREEMTKNQVSLTCLVKGFYPSDIAVEWESNGQPENNYKTTPPVLDSDGSFFLYSKLTVDKSRWQQGNVFSCSVMHEALHNHYTQKSLSLSPGGGGGSGGGGSGGGGSEVQLLESGGGLVQPGGSLRLSCAASGFTFSDFWMHWVRQAPGKGLEWISYISGDSGYTNYADSVKGRFTISRDNSKNTLYLQMNSLRAEDTAVYYCARDRPYYYYMDVWGKGTTVTVSSGGGGSGGGGSGGGGSGGGGSDIQMTQSPSSLSASVGDRVTITCRASQSVSRSLAWYQQKPGKAPKLLIYAASSLQSGVPSRFSGSGSGTDFTLTISSLQPEDFATYYCQQYKSYPVTFGQGTKVEIK
light: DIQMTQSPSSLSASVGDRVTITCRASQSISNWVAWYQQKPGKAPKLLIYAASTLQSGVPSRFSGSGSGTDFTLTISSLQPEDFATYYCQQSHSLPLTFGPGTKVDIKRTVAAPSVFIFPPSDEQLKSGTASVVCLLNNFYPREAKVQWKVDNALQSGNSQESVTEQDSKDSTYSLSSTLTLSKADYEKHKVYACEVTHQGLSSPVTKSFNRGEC
B19: PMAB214 (bispecific antibody, human IgG1, kappa)
heavy: B18 heavy
light: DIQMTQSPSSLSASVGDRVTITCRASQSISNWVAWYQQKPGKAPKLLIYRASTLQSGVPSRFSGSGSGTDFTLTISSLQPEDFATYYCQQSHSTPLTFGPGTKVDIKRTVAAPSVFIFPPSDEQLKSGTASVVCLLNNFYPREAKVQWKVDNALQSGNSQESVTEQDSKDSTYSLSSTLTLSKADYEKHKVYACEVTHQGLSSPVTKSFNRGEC
B20: PMAB212 (bispecific antibody, human IgG1, kappa)
heavy: B18 heavy
light: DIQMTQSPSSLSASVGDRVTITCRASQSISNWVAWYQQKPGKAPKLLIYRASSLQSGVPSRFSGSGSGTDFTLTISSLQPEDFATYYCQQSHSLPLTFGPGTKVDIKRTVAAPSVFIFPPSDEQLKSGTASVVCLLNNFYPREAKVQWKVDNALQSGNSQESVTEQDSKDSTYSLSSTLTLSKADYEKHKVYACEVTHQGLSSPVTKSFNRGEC
B21: PMAB213 (bispecific antibody, human IgG1, kappa)
heavy: B18 heavy
light: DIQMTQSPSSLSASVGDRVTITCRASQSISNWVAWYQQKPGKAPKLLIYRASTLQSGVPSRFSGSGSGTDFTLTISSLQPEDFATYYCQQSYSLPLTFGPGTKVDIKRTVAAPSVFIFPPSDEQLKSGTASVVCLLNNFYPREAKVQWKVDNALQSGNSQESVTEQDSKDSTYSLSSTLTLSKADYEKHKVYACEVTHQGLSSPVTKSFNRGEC
B22: MIAB133 (antibody, human IgG1, kappa)
heavy: EVQLLESGGGLVQPGGSLRLSCAASGFTFSSFWMHWVRQAPGKGLEWISYISGDSGYTNYADSVKGRFTISRDNSKNTLYLQMNSLRAEDTAVYYCARDRPYYYYMDVWGKGTTVTVSSASTKGPSVFPLAPSSKSTSGGTAALGCLVKDYFPEPVTVSWNSGALTSGVHTFPAVLQSSGLYSLSSVVTVPSSSLGTQTYICNVNHKPSNTKVDKKVEPKSCDKTHTCPPCPAPEAAGAPSVFLFPPKPKDTLMISRTPEVTCVVVDVSHEDPEVKFNWYVDGVEVHNAKTKPREEQYNSTYRVVSVLTVLHQDWLNGKEYKCKVSNKALPAPIEKTISKAKGQPREPQVYTLPPSREEMTKNQVSLTCLVKGFYPSDIAVEWESNGQPENNYKTTPPVLDSDGSFFLYSKLTVDKSRWQQGNVFSCSVMHEALHNHYTQKSLSLSPGGGGGSAPTSSSTKKTQLQLEHLLLDLQMILNGINNYKNPKLTRMLTFKFYMPKKATELKHLQCLEEELKPLEEALNLAPSKNFHLRPRDLISDINVIVLELKGSETTFMCEYADETATIVEFINRWITFSQSIISTLT
light: DIQMTQSPSSLSASVGDRVTITCRASQSVSRSLAWYQQKPGKAPKLLIYAASSLQSGVPSRFSGSGSGTDFTLTISSLQPEDFATYYCQQYKSYPVTFGQGTKVEIKRTVAAPSVFIFPPSDEQLKSGTASVVCLLNNFYPREAKVQWKVDNALQSGNSQESVTEQDSKDSTYSLSSTLTLSKADYEKHKVYACEVTHQGLSSPVTKSFNRGEC
notes: also called MIAB133-001
B23: MIAB145 (antibody, human IgG1, kappa)
heavy: B22 heavy with S31D
light: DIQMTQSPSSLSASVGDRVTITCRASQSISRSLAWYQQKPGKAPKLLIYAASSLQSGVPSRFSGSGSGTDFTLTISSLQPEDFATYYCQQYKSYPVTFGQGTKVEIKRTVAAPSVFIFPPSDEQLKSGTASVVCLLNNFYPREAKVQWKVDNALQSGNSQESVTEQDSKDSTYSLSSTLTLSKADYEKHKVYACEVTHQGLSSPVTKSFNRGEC
notes: also called MIAB145-001
B24: MIAB147 (antibody, human IgG1, kappa)
heavy: B22 heavy with S31D
light: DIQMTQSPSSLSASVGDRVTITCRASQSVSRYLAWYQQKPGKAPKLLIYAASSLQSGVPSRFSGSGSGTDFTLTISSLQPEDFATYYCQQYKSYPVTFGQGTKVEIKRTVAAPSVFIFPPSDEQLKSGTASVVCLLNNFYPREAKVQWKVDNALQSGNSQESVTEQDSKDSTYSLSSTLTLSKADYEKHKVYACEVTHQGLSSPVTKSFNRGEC
notes: also called MIAB147-001
B25: MIAB136 (antibody, human IgG1, kappa)
heavy: B22 heavy with F32Y, W33A, H35S
light: B22 light
B26: MIAB146 (antibody, human IgG1, kappa)
heavy: B22 heavy with S31D
light: B22 light with R31S
notes: also called MIAB146-001
B27: MIAB137 (antibody, human IgG1, kappa)
heavy: B22 heavy with S31D, I48V, Y50A, D54S, S55G, Y57S, N59Y
light: B22 light
B28: MIAB149 (antibody, human IgG1, kappa)
heavy: B22 heavy with S31D
light: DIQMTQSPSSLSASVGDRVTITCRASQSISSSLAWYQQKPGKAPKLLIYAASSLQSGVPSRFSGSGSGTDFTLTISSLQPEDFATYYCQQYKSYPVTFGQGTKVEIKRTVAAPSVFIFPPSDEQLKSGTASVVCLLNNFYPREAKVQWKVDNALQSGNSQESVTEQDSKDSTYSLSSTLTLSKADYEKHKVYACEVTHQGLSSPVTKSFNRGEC
notes: also called MIAB149-001

Each binder was assayed against T1, human PD-1 (human, UniProt Q15116 25-167, limits assumed) (assay: ELISA on coated huPD-1).
T1 construct: also called huPD-1
T1 sequence (Q15116 25-167 limits assumed): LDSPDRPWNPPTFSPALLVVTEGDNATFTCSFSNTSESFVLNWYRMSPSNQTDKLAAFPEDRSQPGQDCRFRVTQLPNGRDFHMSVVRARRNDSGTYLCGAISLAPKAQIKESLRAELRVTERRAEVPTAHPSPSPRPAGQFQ
Method: Plates were coated with 2 μg/mL huPD-1 in 1×PBS at 4° C. overnight. Plates were blocked with 1×PBS with 1% BSA. Antibodies were tested in duplicate for binding with a 3-fold, dilution series from 300 nM to 0.4 nM. Signal is background subtracted for coated wells with 2° antibody only. […] PD-1 agonists comprising germline mutations bind to human PD-1.
With B1 the IC50 was 85.9 nM. B2 gave an IC50 of 46.4 nM. For B3, the IC50 was 39 nM. Work on B4 yielded an IC50 of 15.9 nM. B5 was tested, and the IC50 was 28.1 nM. Work on B6 yielded an IC50 of 36.4 nM. Binder B7 has an IC50 of 44.7 nM. B8 was tested, and the IC50 was 30.6 nM. Work on B9 yielded an IC50 of 258 nM. With B10 the IC50 was 23.2 nM. In the case of B11, the IC50 is reported as 40.7 nM.

Each binder was assayed against T1, human PD-1 (assay: BLI, antibody on AHC tip).
B12: no binding (tested: 1000 nM). B13: no binding (tested: 1000 nM). B14: no binding (tested: 1000 nM). B15: no binding (tested: 1000 nM). B16: no binding (tested: 1000 nM). B17: no binding (tested: 1000 nM).

These binders were tested against T1, human PD-1 (assay: BLI, antibody on AHC tip, soluble PD-1).
Work on B18 yielded a Kd of 1300 nM. B19 gave a Kd of 8050 nM. B20 was tested, and the Kd was 1090 nM. Binder B21 has a Kd of 1430 nM.

What follows are binders tested against T2, Insulin (assay: ELISA on coated insulin, 100 nM antibody).
T2 construct: polyreactivity antigen
T2 sequence (P01308 25-54, chain 1 of 2): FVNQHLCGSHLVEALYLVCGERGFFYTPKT
T2 sequence (P01308 90-110, chain 2 of 2): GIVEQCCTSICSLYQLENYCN
B22 was tested, and the Insulin polyreactivity score was 13.2. B23 was tested, and the Insulin polyreactivity score was 4.58. For B24, the Insulin polyreactivity score was 3.81. B25 gave an Insulin polyreactivity score of 75.4. B26 gave an Insulin polyreactivity score of 2.61. For B27, the Insulin polyreactivity score was 67.3. For B28, the Insulin polyreactivity score was 3.53.
